Test results: paper PMC4790635, “A critical role of mevalonate for peptidoglycan synthesis in Staphylococcus aureus” (Scientific Reports, 2016)

Target: the molecule itself
Experiment: SEC; gel filtration analysis of S. aureus MvaA protein; conditions not told in the text (Supplementary Fig. 9)

B1: S. aureus MvaA protein (HMG-CoA reductase), His-tag fused recombinant wild-type (enzyme, Staphylococcus aureus (strain RN4220), UniProt Q9FD86 1-425, looked up)
chain: MQSLDKNFRHLSRQQKLQQLVDKQWLSEDQFDILLNHPLIDEEVANSLIENVIAQGALPVGLLPNIIVDDKAYVVPMMVEEPSVVAAASYGAKLVNQTGGFKTVSSERIMIGQIVFDGVDDTEKLSADIKALEKQIHKIADEAYPSIKARGGGYQRIAIDTFPEQQLLSLKVFVDTKDAMGANMLNTILEAITAFLKNESPQSDILMSILSNHATASVVKVQGEIDVKDLARGERTGEEVAKRMERASVLAQVDIHRAATHNKGVMNGIHAVVLATGNDTRGAEASAHAYASRDGQYRGIATWRYDQKRQRLIGTIEVPMTLAIVGGGTKVLPIAKASLELLNVDSAQELGHVVAAVGLAQNFAACRALVSEGIQQGHMSLQYKSLAIVVGAKGDEIAQVAEALKQEPRANTQVAERILQEIRQQ
notes: MvaA protein (HMG-CoA reductase) of Staphylococcus aureus RN4220; mvaA gene amplified by PCR from chromosomal DNA with primers FmvaA-His and RmvaA-His and ligated into pET28a in-frame with the N-terminal histidine tag; also called SaMvaA; WT MvaA; source: E. coli BL21(DE3)pLysS, purified (nickel-chelating resin, dialysis)
With B1 as the protein, how does the “stoichiometry N” value read?
The value was 2.
